Consider one substance from publication PMC10137048.

The target in the assay is amyloid beta (Aβ) peptide Aβ42.

Usually stoichiometry N stands for the number of molecules, sites or subunits per partner or assembly. Consider amyloid beta (Aβ) peptide Aβ42, for which the stoichiometry N was < 4.
